Experimental data from the supplement of paper PMC9170038.

System: MS2 coat protein
Assay: apparent KD of MS2 coat protein; designed switch direction (-1 OFF switch, 1 ON switch): -1; higher = weaker reporter binding
Outline: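 Designed RNA switches were transcribed on Illumina chips by stalled E. coli RNA polymerase and titrated with SNAP-549-labelled MS2 coat protein from 0.7 or 1.5 nM, doubling to 3 µM. Step length ran from 0.8–1.5 h at the lowest concentration to 10–20 min at the highest. The apparent KD is the median over clusters for each design, from curve-fitted normalised cluster fluorescence.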

[1] = input ligand: microRNA oligo, concentration not stated
[2] = Eterna round: R95, input ligand: microRNA oligo, concentration not stated
[3] = Eterna round: R95, input ligand: FMN 200 uM
[4] = Eterna round: R95, input ligand: none

Sequence: CUUUUGUGAGGAUAUUAGUAGUAAAUAAAUAAAUUUACUACUGAGAAGGCACAUGAGGAUCACCCAUGUUCCUC [salish99_ex4_r3_060] (Eterna round: R96, puzzle: Exclusion 4)
- apparent KD of MS2 coat protein (input ligand: FMN 200 uM): 703 nM
- apparent KD of MS2 coat protein [1]: 38.5 nM
- apparent KD of MS2 coat protein (input ligand: none): 40.9 nM

Sequence: UAAUAAAGUGUGAGGAUAUGCUGGUCCUUGGAUCAGCAGAAGGCACAUGAGGAUCACCCAUGUAAUAUAUAAAU [Mat - Exclusion 4 - JL Mod - D55] (puzzle: Brourd's mod of Exclusion 4)
- apparent KD of MS2 coat protein [2]: 70.4 nM

Sequence: AGGUGGAAGCAGGAUAUGCUUGUAUAAUUGAUAGCAGAAGGGCUAACAUGAGGAUCACCCAUGUAAGAGGUGUA [JR_E6_Sub058] (puzzle: Exclusion 6)
- apparent KD of MS2 coat protein [3]: 340 nM
- apparent KD of MS2 coat protein [2]: 177 nM
- apparent KD of MS2 coat protein [4]: 206 nM

Sequence: UGAUCUAGCGGAGGAUAUACAUGAGGAUCACCCAUGUAUAGGCCAUCUGGUGACAGGUGGAACAUGUAGAAGGCCGCUAGAUCU [JL ENG2 3.81] (Eterna round: R96, puzzle: Exclusion NG 2)
- apparent KD of MS2 coat protein (input ligand: FMN 200 uM): 35.9 nM
- apparent KD of MS2 coat protein [1]: 9.54 nM
- apparent KD of MS2 coat protein (input ligand: none): 13.9 nM

Sequence: GAUCAACAAUCGAGCGGAUACAUGAGGAUCACCCAUGUCCGUAGUCGGGUAAAUAACAAGCUUUUUUCGCCGUCCCU [Eternabot (Original) Solution 42] (Eterna round: R97, puzzle: Sensor, turn-off variant 1)
- apparent KD of MS2 coat protein (input ligand: FMN 200 uM): 15.4 nM
- apparent KD of MS2 coat protein (input ligand: none): 14.9 nM

Sequence: AUGUACCGGUGAGGAUAUUUAUAAUAGAGCUUUAUGAUAUACAUGAGGAUCACCCAUGUUACUUUAAAGAAGGCAUCGGAUUAA [Mat - Exclusion NG 2 - Mod of JL - D91] (Eterna round: R96, puzzle: Exclusion NG 2)
- apparent KD of MS2 coat protein (input ligand: FMN 200 uM): 15.3 nM
- apparent KD of MS2 coat protein [1]: 15.3 nM
- apparent KD of MS2 coat protein (input ligand: none): 21.2 nM

Sequence: AGCGGCCGAGGAUAUACAAUCCUCCUGGCAGCCUGUCUGCCACAUGAGGAUCACCCAUGUAGAAGGCGGACCGC [Xelezabi] (puzzle: Exclusion 2)
- apparent KD of MS2 coat protein [2]: 128 nM

Sequence: GCCAUGGGAGGAUAUACGUCAUAGGUUACCUCACGCUGGCGACAUGAGGAUCACCCAUGUAGAAGGCUCAGAUG [Eternabot (L2) Solution 12] (Eterna round: R97, puzzle: Exclusion 2)
- apparent KD of MS2 coat protein (input ligand: FMN 200 uM): 101 nM
- apparent KD of MS2 coat protein (input ligand: none): 113 nM

Sequence: AAAUAGCUAGAGGAUAUCGGAUAGAAUUUAUUACGAGAAGGUUAGACAUGAGGAUCACCCAUGUUCUGUUGGGA [EX6 #22] (Eterna round: R97, puzzle: Exclusion 6)
- apparent KD of MS2 coat protein (input ligand: FMN 200 uM): 70 nM
- apparent KD of MS2 coat protein (input ligand: none): 33.8 nM

Sequence: CUUUUGUGAGGAUAUUAGUAGUAAAUAAAUAAAUUUACUACUGAGAAGGCACAUGAGGAUCACCCAUGUUCCUC [salish99_ex4_r3_060] (puzzle: Exclusion 4)
- apparent KD of MS2 coat protein [2]: 33.7 nM

Sequence: GGUCGGCGAGGAUAUACAUGAGGAUCACCCAUGUGAUAGAGUGCACGCGUACGUGUACGUAGAAGGCGCUGACG [JL-ex3-3.28 salish99 mod] (puzzle: Exclusion 3)
- apparent KD of MS2 coat protein [3]: 26.4 nM
- apparent KD of MS2 coat protein [2]: 13.2 nM
- apparent KD of MS2 coat protein [4]: 12.5 nM

Sequence: GGAUAUCGAGGAUAUACAUGAGGAUCACCCAUGUUGAAUCCGUGGGAUGGCCGACGAUGUAGAAGGUGACUCAU [Eternabot (Original) Solution 27] (Eterna round: R97, puzzle: Exclusion 3)
- apparent KD of MS2 coat protein (input ligand: FMN 200 uM): 134 nM
- apparent KD of MS2 coat protein (input ligand: none): 232 nM

Sequence: AGUUGGCGAGGAUAUACAUGAGGAUCACCCAUGUGAGAGAAUAAAGUGAGGAAGAAAAGUAGAAGGCGCUGACA [Mat - Exclusion 3 - Mod of Salish D9] (puzzle: Exclusion 3)
- apparent KD of MS2 coat protein [2]: 47.7 nM

Sequence: GGUCCGAGUGUGAGGAUAUGCUGGUCCUUGGAUCAGCAGAAGGCACAUGAGGAUCACCCAUGUGGUGUCGGACC [Mat - Exclusion 4 - Eli Mod - D32] (Eterna round: R97, puzzle: Brourd's mod of Exclusion 4)
- apparent KD of MS2 coat protein (input ligand: FMN 200 uM): 140 nM
- apparent KD of MS2 coat protein (input ligand: none): 932 nM

Sequence: CCGAAUAUGCAGGAUAUCUUAUCGGAAACGAUAAGAGAAGGGUAAACAUGAGGAUCACCCAUGUUCCUUAACGG [Mat - Exclusion 6 - Eli Mod - D80] (puzzle: Exclusion 6)
- apparent KD of MS2 coat protein [2]: 18.9 nM

Sequence: AGUAACUAUCACGAAAGUGAUAGUUACACAAGUGUAAUAACAUGAGGAUCACCCAUGUCCUCAUUUGCUCGUCUUAU [Sensor 3 - 34] (puzzle: Sensor v3, turn-off variant 2)
- apparent KD of MS2 coat protein [3]: 149 nM
- apparent KD of MS2 coat protein [2]: 162 nM
- apparent KD of MS2 coat protein [4]: 33.6 nM

Sequence: GUAGUUCGAGUUAGGAUAUGAUUAAAAUUCGGAUAUCAGAAGGAACUUGAGGAUCACCCAAGUAUAGAUGAUUC [JR_BMEx4_Sub058] (Eterna round: R97, puzzle: Brourd's mod of Exclusion 4)
- apparent KD of MS2 coat protein (input ligand: FMN 200 uM): 91.6 nM
- apparent KD of MS2 coat protein (input ligand: none): 38.1 nM

Sequence: ACAUGAGGAUCACCCAUGUCUGGCUGGUCUGCUCCGGCUGUUGAGGAUAUAGUCCGGUGUUCGCGCUAGAAGGCGAGGGCUGGA [Aenatbe mod 42] (Eterna round: R96, puzzle: Exclusion NG 3)
- apparent KD of MS2 coat protein (input ligand: FMN 200 uM): 42.5 nM
- apparent KD of MS2 coat protein [1]: 21.9 nM
- apparent KD of MS2 coat protein (input ligand: none): 48.4 nM

Sequence: CUGAACCCGGUAGGAUAUAUUGUGGGCAAGCAUGGAACGACAUGAGGAUCACCCAUGUAAUUUAGGUAGAAGGGCCGAGAGAUU [Excl-NG2-LRO11] (Eterna round: R96, puzzle: Exclusion NG 2)
- apparent KD of MS2 coat protein (input ligand: FMN 200 uM): 70.7 nM
- apparent KD of MS2 coat protein [1]: 66.3 nM
- apparent KD of MS2 coat protein (input ligand: none): 67.3 nM

Sequence: CCUCUGUCAGGAUAUCGUGCAUACAACGAAAGUUCUAUGUGCGAGAAGGGACAUGAGGAUCACCCAUGUUUGCG [Omei Ex4 A21] (Eterna round: R97, puzzle: Exclusion 4)
- apparent KD of MS2 coat protein (input ligand: FMN 200 uM): 225 nM
- apparent KD of MS2 coat protein (input ligand: none): 62.5 nM

Sequence: ACAUGUAAUGCAGGAUAUGGGACACAUGAGGAUCACCCAUGUGACCAUAUGUAAUGCUAAGAGUCUCAGAAGGGUAUGUACAUG [Ex NG2 #46] (Eterna round: R96, puzzle: Exclusion NG 2)
- apparent KD of MS2 coat protein (input ligand: FMN 200 uM): 15.2 nM
- apparent KD of MS2 coat protein [1]: 7.56 nM
- apparent KD of MS2 coat protein (input ligand: none): 12.9 nM

Sequence: UUUUUGUGAGGAUAUCAGUAGUAAAUAAAUAAAAUAACUACUGAGAAGGCACAUGAGGAUCACCCAUGUUCUUU [Mat - Exclusion 4 - Mod of Salish - D67] (puzzle: Exclusion 4)
- apparent KD of MS2 coat protein [2]: 17.1 nM

Sequence: AAGUACCGUCACGAUAGUGAUGGUACAGCAAGCAGUGAAACAUGAGGAUCACCCAUGUCCUCAAUUGCUCGUCUUAU [Sensor 3 - 78] (puzzle: Sensor v3, turn-off variant 2)
- apparent KD of MS2 coat protein [3]: 43.3 nM
- apparent KD of MS2 coat protein [2]: 211 nM
- apparent KD of MS2 coat protein [4]: 44.5 nM

Sequence: CCGGAAAUAGAGGAUAUCGUACUGGAUACAGUACGAGAAGGCUAUACAUGAGGAUCACCCAUGUGUCCUACCGG [Fiskers Ex 6 - 61] (puzzle: Exclusion 6)
- apparent KD of MS2 coat protein [2]: 16.1 nM

Sequence: AUAUAACAUGAGGAUCACCCAUGUGAGGAUAUGCGAUAUAUAAUAAUAAUAAUAAUAAGCAGAAGGCACAAAAU [My FIrst Design] (puzzle: Exclusion 1)
- apparent KD of MS2 coat protein [3]: 60.2 nM
- apparent KD of MS2 coat protein [2]: 78.7 nM
- apparent KD of MS2 coat protein [4]: 71.7 nM

Sequence: GGCGGACAUGAGGAUCACCCAUGUCAGGAUAUUAGGCGAUCGUCGAUAGACGAUAGCCUGAGAAGGGACGCGCC [Mat - Exclusion 1 - Eli Mod - D13] (Eterna round: R97, puzzle: Exclusion 1)
- apparent KD of MS2 coat protein (input ligand: FMN 200 uM): 18.6 nM
- apparent KD of MS2 coat protein (input ligand: none): 17.7 nM

Sequence: GAGCUAUGAGGAUAUGCAUAGAUACGGAUUCGUGUAGUACUACAUGAGGAUCACCCAUGUAGAAGGCGUGGCUG [JL-ex2-2.02 mat747 mod] (puzzle: Exclusion 2)
- apparent KD of MS2 coat protein [2]: 15.4 nM

Sequence: AUCGAGAUAGGAUAUGCCCAAGUAAACAUGAGGAUCACCCAUGUGGGUCACCUCUUCACGGUAGAAGGGUUAGAUU [Eternabot (L1) Solution 90] (Eterna round: R97, puzzle: Exclusion 5)
- apparent KD of MS2 coat protein (input ligand: FMN 200 uM): 62 nM
- apparent KD of MS2 coat protein (input ligand: none): 81.8 nM

Sequence: UAUAUAUAGUAAGGAUAUGUAGUUAUUUUAUAAACAGAAGGUACUGACAUGAGGAUCACCCAUGUUUUAGUGUGGGCAUGUAGA [JMF's solution 6] (Eterna round: R96, puzzle: Exclusion NG 1)
- apparent KD of MS2 coat protein [1]: 71.1 nM

Sequence: GUUUUGGGAGGAUAUAUGUGGAUAAUUUUUAUAUGAAAAUUACAUGAGGAUCACCCAUGUAGAAGGUCUAGAGC [-17.2, -15.1 kcal, 32% A] (Eterna round: R97, puzzle: Exclusion 2)
- apparent KD of MS2 coat protein (input ligand: FMN 200 uM): 473 nM
- apparent KD of MS2 coat protein (input ligand: none): 637 nM

Sequence: GUCCAGGCAGGAUAUGUACAGGAGCACUUGAGGAUCACCCAAGUCCUCGUGUUGUUGUCAGCAGAAGGGCCCAUUA [Dizaquin] (Eterna round: R97, puzzle: Exclusion 5)
- apparent KD of MS2 coat protein (input ligand: FMN 200 uM): 529 nM
- apparent KD of MS2 coat protein (input ligand: none): 187 nM

Sequence: CCCGAGCAUGUAGGAUAUGGCUCGGUGUCUGGGCCAGAAGGACAUGAGGAUCACCCAUGUCUGCGGGUGUGGAUAUGAUUUGGG [-32, -31 kcal A 20%] (Eterna round: R96, puzzle: Exclusion NG 1)
- apparent KD of MS2 coat protein (input ligand: FMN 200 uM): 85.2 nM
- apparent KD of MS2 coat protein [1]: 14.5 nM
- apparent KD of MS2 coat protein (input ligand: none): 32.1 nM

Sequence: AUUCCACAUGAGGAUCACCCAUGUGAGGAUAUCAUGCUUCGUAGUAAACUACGAAGUGUGAGAAGGCACAAUGG [Omei Ex1 C3] (Eterna round: R97, puzzle: Exclusion 1)
- apparent KD of MS2 coat protein (input ligand: FMN 200 uM): 183 nM
- apparent KD of MS2 coat protein (input ligand: none): 62 nM

Sequence: CUCCUACAUGAGGAUCACCCAUGUCAGGAUAUCUCAGUGGCGCCUAAAUGUGCCACCCAGAGAAGGGACGUGCA [Zainceve] (puzzle: Exclusion 1)
- apparent KD of MS2 coat protein [2]: 12.3 nM

Sequence: GUAGAGUGAGGAUAUACGAGAUCGAAAGAUCGGCGAUCCAUACAUGAGGAUCACCCAUGUAGAAGGCACUCUAC [Eli x2 4.002] (Eterna round: R97, puzzle: Exclusion 2)
- apparent KD of MS2 coat protein (input ligand: FMN 200 uM): 521 nM
- apparent KD of MS2 coat protein (input ligand: none): 26.3 nM
